From patent CN114478780A (AGRICULTURAL UNIV IN CHINA, dated 2022) come the findings set out here.

One assay has as its target 细胞表面的GPC3蛋白 (UniProt P51654). The assay can be described thus: cell-based or functional assay.
The target in a further assay is GPC3-his蛋白 (UniProt P51654 25-559). As to the kind of experiment: SPR (Biacore), GPC3-his amine-coupled on CM5, antibody as analyte, 1:1 Langmuir fit.

In the assay with 细胞表面的GPC3蛋白, HN3-PE24 registered a 杀伤活性 IC50, Hep3BLG cells, 72 h, luciferase viability of 0.109 µg/mL.

B1: HN3 (antibody, V domains shown)
VH: QVQLVQSGGGLVQPGGSLRLSCAASYFDFDSYEMSWVRQAPGKGLEWIGSIYHSGSTYYNPSLKSRVTISRDNSKNTLYLQMNTLRAEDTATYYCARVNMDRFDYWGQGTLVTVSS
Take B1: in the assay with GPC3-his蛋白, the Kd amounted to 1.95 nM.

In general, Kd refers to the equilibrium constant for the complex coming apart. High values mean weaker binding, low ones tighter binding.
